Experimental data from the supplement of paper PMC9732359.
± gives the uncertainty stated by the source.

Test: protein stability index of a GFP-peptide fusion (yeast GPS) (PSI 1-4); higher = more stable; sorted into four equal gates, so the index is relative within each strain
Procedure, shortened: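 For each peptide, the protein stability index sums the read frequency in every gate after multiplying it by the gate number. Read frequencies came from plasmids that were PCR-amplified from each gate and Illumina-sequenced, with reads assigned to strains by barcodes. The gates were four equal bins of GFP/Cherry fluorescence ratio applied to mid-log yeast in leucine-free medium carrying a pooled library of tiled 17-residue yeast protein peptides fused downstream of GFP on a Cherry-expressing plasmid.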

SKTVKVLKTLIEKFEQV [RPN6]
protein stability index (doa10∆): 2.27 ± 0.2 | protein stability index (pdr5∆): 3.25 ± 0.1 | protein stability index (san1∆): 3.07 ± 0.11 | protein stability index (ubr1∆): 2.83 ± 0.07

SKTVVTLSEPVQGELKP [FAS1]
protein stability index (doa10∆): 2.56 ± 0.05 | protein stability index (pdr5∆): 2.73 ± 0.052 | protein stability index (san1∆): 2.5 ± 0.053 | protein stability index (ubr1∆): 2.18 ± 0.033

SKVSIEQRKEAAEFVLA [RPN7]
protein stability index (doa10∆): 2.12 ± 0.13 | protein stability index (pdr5∆): 2.49 ± 0.15 | protein stability index (san1∆): 2.45 ± 0.09 | protein stability index (ubr1∆): 2.45 ± 0.06

SKWFNLEKIHSIEVQSL [SWI3]
protein stability index (doa10∆): 2.67 ± 0.24 | protein stability index (pdr5∆): 2.45 ± 0.13 | protein stability index (san1∆): 1.59 ± 0.14 | protein stability index (ubr1∆): 2.72 ± 0.12

SLAGFHKVQTKLTRELE [RPS7A]
protein stability index (doa10∆): 2.4 ± 0.065 | protein stability index (pdr5∆): 1.98 ± 0.06 | protein stability index (san1∆): 1.57 ± 0.13 | protein stability index (ubr1∆): 2.04 ± 0.058

SLAILGMNLLSNLSQNV [SWI1]
protein stability index (doa10∆): 2.44 ± 0.055 | protein stability index (pdr5∆): 2.94 ± 0.058 | protein stability index (san1∆): 2.69 ± 0.052 | protein stability index (ubr1∆): 2.81 ± 0.046

SLAQNDCNSALDQLLVL [RPN5]
protein stability index (doa10∆): 2.15 ± 0.048 | protein stability index (pdr5∆): 2.35 ± 0.053 | protein stability index (san1∆): 2.15 ± 0.053 | protein stability index (ubr1∆): 2.37 ± 0.05

SLAWSADGQTLFAGYTD [ASC1]
protein stability index (doa10∆): 2.66 ± 0.08 | protein stability index (pdr5∆): 3.05 ± 0.091 | protein stability index (san1∆): 2.7 ± 0.075 | protein stability index (ubr1∆): 3.09 ± 0.1

SLDIRHDFIKGLIMLNL [NUT1]
protein stability index (doa10∆): 2.18 ± 0.064 | protein stability index (pdr5∆): 1.56 ± 0.068 | protein stability index (san1∆): 1.31 ± 0.13 | protein stability index (ubr1∆): 1.72 ± 0.057

SLEENAMSTVTLGVVGK [SKI6]
protein stability index (doa10∆): 3.22 ± 0.16 | protein stability index (pdr5∆): 3.21 ± 0.14 | protein stability index (san1∆): 3.04 ± 0.099 | protein stability index (ubr1∆): 2.72 ± 0.11

SLFSKIKTFFTQKDSAR [YAR002W/NUP60]
protein stability index (doa10∆): 2.21 ± 0.091 | protein stability index (pdr5∆): 2.84 ± 0.083 | protein stability index (san1∆): 2.42 ± 0.09 | protein stability index (ubr1∆): 2.68 ± 0.087

SLGIAQPKGVILYGPPG [RPT6]
protein stability index (doa10∆): 2.71 ± 0.061 | protein stability index (pdr5∆): 2.89 ± 0.072 | protein stability index (san1∆): 2.77 ± 0.089 | protein stability index (ubr1∆): 2.91 ± 0.077

SLHSNSFSLTVSKEQFL [YJL039C/NUP192]
protein stability index (doa10∆): 1.81 ± 0.065 | protein stability index (pdr5∆): 1.8 ± 0.072 | protein stability index (san1∆): 1.84 ± 0.12 | protein stability index (ubr1∆): 1.43 ± 0.078

SLKLENSDLEGKIRGVE [SMC2]
protein stability index (doa10∆): 3.23 ± 0.086 | protein stability index (pdr5∆): 3.37 ± 0.064 | protein stability index (san1∆): 3.37 ± 0.061 | protein stability index (ubr1∆): 3.21 ± 0.05

SLLDKPDEAIEKVFNAY [FAS1]
protein stability index (doa10∆): 3.15 ± 0.085 | protein stability index (pdr5∆): 3.34 ± 0.099 | protein stability index (san1∆): 3.2 ± 0.066 | protein stability index (ubr1∆): 3.29 ± 0.078

SLSDNDLAVCATIIGII [ECM29]
protein stability index (doa10∆): 2.71 ± 0.072 | protein stability index (pdr5∆): 2.83 ± 0.056 | protein stability index (san1∆): 2.78 ± 0.053 | protein stability index (ubr1∆): 2.75 ± 0.038

SLSIKLATLHYQKKQYK [RPN6]
protein stability index (doa10∆): 1.33 ± 0.064 | protein stability index (pdr5∆): 1.28 ± 0.061 | protein stability index (san1∆): 1.34 ± 0.11 | protein stability index (ubr1∆): 1.34 ± 0.079

SLWRRTVYSLSQQAGLD [YDL116W/NUP84]
protein stability index (doa10∆): 1.9 ± 0.12 | protein stability index (pdr5∆): 2.39 ± 0.28 | protein stability index (san1∆): 1.78 ± 0.27 | protein stability index (ubr1∆): 2.26 ± 0.08

SMCGFEVRILPRQRMEE [PRP8]
protein stability index (doa10∆): 2.29 ± 0.057 | protein stability index (pdr5∆): 1.87 ± 0.053 | protein stability index (san1∆): 2.23 ± 0.063 | protein stability index (ubr1∆): 2.24 ± 0.049

SMNVTLGVPRIKEIINA [RPO31]
protein stability index (doa10∆): 2.71 ± 0.066 | protein stability index (pdr5∆): 2.56 ± 0.048 | protein stability index (san1∆): 2.13 ± 0.065 | protein stability index (ubr1∆): 2.47 ± 0.046

SNEDVMMTGAEQDPYSN [RPB3]
protein stability index (doa10∆): 3.09 ± 0.092 | protein stability index (pdr5∆): 3.09 ± 0.079 | protein stability index (san1∆): 3.19 ± 0.085 | protein stability index (ubr1∆): 3.12 ± 0.073

SNEEKEKIKMKLKQGQK [GAL11]
protein stability index (doa10∆): 2.96 ± 0.25 | protein stability index (pdr5∆): 3.37 ± 0.12 | protein stability index (san1∆): 3.04 ± 0.07

SNEEQRNLDSATLKEIK [SMC3]
protein stability index (doa10∆): 3.5 ± 0.14 | protein stability index (pdr5∆): 3.21 ± 0.13 | protein stability index (san1∆): 3.46 ± 0.084 | protein stability index (ubr1∆): 3.48 ± 0.16

SNGGNNMLPQRQSSVGS [SNF2]
protein stability index (doa10∆): 1.76 ± 0.067 | protein stability index (pdr5∆): 2.18 ± 0.097 | protein stability index (san1∆): 2.19 ± 0.076 | protein stability index (ubr1∆): 2.55 ± 0.045

SNKKETKKKRKPTEVND [ITC1]
protein stability index (doa10∆): 3.15 ± 0.078 | protein stability index (pdr5∆): 3.31 ± 0.074 | protein stability index (san1∆): 3.26 ± 0.07 | protein stability index (ubr1∆): 3.23 ± 0.062

SNLAATKSMVKIAEQYS [RPN11]
protein stability index (doa10∆): 2.83 ± 0.075 | protein stability index (pdr5∆): 2.73 ± 0.064 | protein stability index (san1∆): 3.04 ± 0.051 | protein stability index (ubr1∆): 2.98 ± 0.063

SNMFDNSADVDMDAQGR [YGL100W/SEH1]
protein stability index (doa10∆): 3.42 ± 0.085 | protein stability index (pdr5∆): 3.55 ± 0.076 | protein stability index (san1∆): 3.5 ± 0.057 | protein stability index (ubr1∆): 3.29 ± 0.062

SNNTGNTAFGNSNPTSN [YJL041W/NSP1]
protein stability index (doa10∆): 3.01 ± 0.15 | protein stability index (pdr5∆): 3.19 ± 0.13 | protein stability index (san1∆): 2.66 ± 0.15

SNQLISNYAASNSMDRS [SWI1]
protein stability index (doa10∆): 3.11 ± 0.18 | protein stability index (pdr5∆): 3.19 ± 0.15 | protein stability index (san1∆): 3.27 ± 0.12 | protein stability index (ubr1∆): 3.09 ± 0.12

SNRLHPPDIHPNLGPQL [GRR1]
protein stability index (doa10∆): 3.12 ± 0.074 | protein stability index (pdr5∆): 3.09 ± 0.059 | protein stability index (san1∆): 3.01 ± 0.054 | protein stability index (ubr1∆): 2.98 ± 0.049

SNSTPNANQQFLPFNNS [SWI1]
protein stability index (doa10∆): 3.25 ± 0.072 | protein stability index (pdr5∆): 3.19 ± 0.058 | protein stability index (san1∆): 2.96 ± 0.059 | protein stability index (ubr1∆): 2.94 ± 0.052

SNSVFSPDGRNFQVEYA [PRE10]
protein stability index (doa10∆): 3.04 ± 0.057 | protein stability index (pdr5∆): 2.91 ± 0.059 | protein stability index (san1∆): 2.87 ± 0.049 | protein stability index (ubr1∆): 2.79 ± 0.054

SNYDWLFQLLNALTVGD [RPN9]
protein stability index (doa10∆): 2.34 ± 0.076 | protein stability index (pdr5∆): 2.52 ± 0.075 | protein stability index (san1∆): 2.2 ± 0.083 | protein stability index (ubr1∆): 2.56 ± 0.048

SPAALKQLASLKKSEEI [YMR153W/NUP53]
protein stability index (doa10∆): 2.2 ± 0.23 | protein stability index (pdr5∆): 2.85 ± 0.13 | protein stability index (san1∆): 2.65 ± 0.17 | protein stability index (ubr1∆): 3.37 ± 0.15

SPASGIVDKYIGESARI [RPT4]
protein stability index (doa10∆): 2.95 ± 0.27 | protein stability index (pdr5∆): 2.84 ± 0.18 | protein stability index (san1∆): 2.45 ± 0.16

SPELKAELRPLQFKSIR [RPS7A]
protein stability index (doa10∆): 2.91 ± 0.11 | protein stability index (pdr5∆): 3.54 ± 0.11 | protein stability index (san1∆): 2.61 ± 0.14 | protein stability index (ubr1∆): 3.07 ± 0.12

SPFFVLDEVDAALDITN [SMC1]
protein stability index (doa10∆): 2.39 ± 0.093 | protein stability index (pdr5∆): 2.78 ± 0.071 | protein stability index (san1∆): 2.63 ± 0.066 | protein stability index (ubr1∆): 2.69 ± 0.057

SPMLKRIKITANNNMND [GRR1]
protein stability index (doa10∆): 2.36 ± 0.055 | protein stability index (pdr5∆): 2.4 ± 0.078 | protein stability index (san1∆): 1.77 ± 0.079 | protein stability index (ubr1∆): 2.71 ± 0.048

SPRNTYQCAMGKQAIGA [RET1]
protein stability index (doa10∆): 1.94 ± 0.14 | protein stability index (pdr5∆): 2.57 ± 0.14 | protein stability index (san1∆): 2.83 ± 0.15

SPSYSPTSPAYSPTSPS [RPO21]
protein stability index (doa10∆): 2.93 ± 0.05 | protein stability index (pdr5∆): 2.85 ± 0.052 | protein stability index (san1∆): 2.81 ± 0.048 | protein stability index (ubr1∆): 3.08 ± 0.032

SPSYSPTSPNYSPTSPS [RPO21]
protein stability index (doa10∆): 2.85 ± 0.039 | protein stability index (pdr5∆): 2.94 ± 0.04 | protein stability index (san1∆): 2.97 ± 0.033 | protein stability index (ubr1∆): 3.024 ± 0.026

SPTESYSDIGGLESQIQ [RPT2]
protein stability index (doa10∆): 3.3 ± 0.14 | protein stability index (pdr5∆): 3.53 ± 0.14 | protein stability index (san1∆): 3.41 ± 0.06 | protein stability index (ubr1∆): 3.29 ± 0.076

SPYAAMLAAQDVAAKCK [RPS14A]
protein stability index (doa10∆): 2.28 ± 0.05 | protein stability index (pdr5∆): 1.82 ± 0.048 | protein stability index (san1∆): 1.62 ± 0.067 | protein stability index (ubr1∆): 1.88 ± 0.048

SQASSDLGETFRGIIRS [CSL4]
protein stability index (doa10∆): 3.17 ± 0.14 | protein stability index (pdr5∆): 2.96 ± 0.081 | protein stability index (san1∆): 3.3 ± 0.096 | protein stability index (ubr1∆): 3.24 ± 0.073

SQDTKVICSVTGPIEPK [RRP46]
protein stability index (doa10∆): 1.68 ± 0.07 | protein stability index (pdr5∆): 1.72 ± 0.072 | protein stability index (san1∆): 1.94 ± 0.11 | protein stability index (ubr1∆): 2.12 ± 0.076

SQLQPQPQPQPQQQQQH [YDL088C/ASM4]
protein stability index (doa10∆): 2.79 ± 0.087 | protein stability index (pdr5∆): 2.95 ± 0.074 | protein stability index (san1∆): 2.51 ± 0.13 | protein stability index (ubr1∆): 2.88 ± 0.088

SQPSKKSFANHTEDEQI [SIR4]
protein stability index (doa10∆): 2.81 ± 0.059 | protein stability index (pdr5∆): 2.84 ± 0.052 | protein stability index (san1∆): 3.08 ± 0.059 | protein stability index (ubr1∆): 2.83 ± 0.052

SQQAGLDPYERAIYSYL [YDL116W/NUP84]
protein stability index (doa10∆): 2.81 ± 0.12 | protein stability index (pdr5∆): 3.19 ± 0.083 | protein stability index (ubr1∆): 2.83 ± 0.099

SREIAQPSSSRYNGGND [SMB1]
protein stability index (doa10∆): 3.19 ± 0.087 | protein stability index (pdr5∆): 3.22 ± 0.071 | protein stability index (san1∆): 3.22 ± 0.053 | protein stability index (ubr1∆): 3.31 ± 0.055

SRGESDDSLNRLAQNDG [RPS21A]
protein stability index (doa10∆): 2.72 ± 0.19 | protein stability index (pdr5∆): 2.9 ± 0.14
